Results: IntAct's records for PubMed 14613973

B1: Fibroblast growth factor receptor 3 (Homo sapiens), P22607-1 (parent)
chain: MGAPACALALCVAVAIVAGASSESLGTEQRVVGRAAEVPGPEPGQQEQLVFGSGDAVELSCPPPGGGPMGPTVWVKDGTGLVPSERVLVGPQRLQVLNASHEDSGAYSCRQRLTQRVLCHFSVRVTDAPSSGDDEDGEDEAEDTGVDTGAPYWTRPERMDKKLLAVPAANTVRFRCPAAGNPTPSISWLKNGREFRGEHRIGGIKLRHQQWSLVMESVVPSDRGNYTCVVENKFGSIRQTYTLDVLERSPHRPILQAGLPANQTAVLGSDVEFHCKVYSDAQPHIQWLKHVEVNGSKVGPDGTPYVTVLKTAGANTTDKELEVLSLHNVTFEDAGEYTCLAGNSIGFSHHSAWLVVLPAEEELVEADEAGSVYAGILSYGVGFFLFILVVAAVTLCRLRSPPKKGLGSPTVHKISRFPLKRQVSLESNASMSSNTPLVRIARLSSGEGPTLANVSELELPADPKWELSRARLTLGKPLGEGCFGQVVMAEAIGIDKDRAAKPVTVAVKMLKDDATDKDLSDLVSEMEMMKMIGKHKNIINLLGACTQGGPLYVLVEYAAKGNLREFLRARRPPGLDYSFDTCKPPEEQLTFKDLVSCAYQVARGMEYLASQKCIHRDLAARNVLVTEDNVMKIADFGLARDVHNLDYYKKTTNGRLPVKWMAPEALFDRVYTHQSDVWSFGVLLWEIFTLGGSPYPGIPVEELFKLLKEGHRMDKPANCTHDLYMIMRECWHAAPSQRPTFKQLVEDLDRVLTVTSTDEYLDLSAPFEQYSPGGQDTPSSSSSGDDSVFAHDLLPPAPPSSGGSRT

Variants of: B1
Conditions: with fgf1_human FGF1, P05230
Sequence of fgf1_human FGF1, P05230 (P05230 whole entry): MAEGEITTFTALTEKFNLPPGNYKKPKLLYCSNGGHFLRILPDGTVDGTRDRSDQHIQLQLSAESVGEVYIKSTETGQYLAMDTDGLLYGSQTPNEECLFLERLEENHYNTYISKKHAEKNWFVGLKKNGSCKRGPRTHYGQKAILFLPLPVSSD

| effect of a mutation on the interaction | Variant |
| --- | --- |
| increasing interaction strength | P250R |

Variants of: B1
Conditions: with fgf2_human FGF2, P09038
Sequence of fgf2_human FGF2, P09038 (P09038 whole entry): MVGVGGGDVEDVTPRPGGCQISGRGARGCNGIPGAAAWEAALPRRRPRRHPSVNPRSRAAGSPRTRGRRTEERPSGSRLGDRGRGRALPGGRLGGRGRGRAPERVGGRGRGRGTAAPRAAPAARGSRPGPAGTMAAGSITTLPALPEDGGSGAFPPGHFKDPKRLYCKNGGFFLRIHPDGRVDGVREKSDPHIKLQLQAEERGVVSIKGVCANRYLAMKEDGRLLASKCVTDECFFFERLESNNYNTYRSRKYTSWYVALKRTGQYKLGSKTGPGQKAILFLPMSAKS

| effect of a mutation on the interaction | Variant |
| --- | --- |
| causing an interaction | P250R |

Variants of: B1
Conditions: with fgf9_human FGF9, P31371

| effect of a mutation on the interaction | Variant |
| --- | --- |
| causing an interaction | P250R |
